Test results reported in the supplement of paper PMC10724198.
± gives the standard deviation of the averaged measurements.

Tests used:
[1] = test system: Saccharomyces cerevisiae; assay: protein stability index of tFT-peptide fusion (C-terminal peptide) (PSI (0-1 scale)); higher = more stable (slower turnover)
Description: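 MPS profiling in S. cerevisiae of the tFT-X12 degron library: putative degron peptides plus stable controls, 12 aa, fused to the C-terminus of a sfGFP-mCherry timer. Cells are FACS-sorted into 8 mCherry/sfGFP bins and deep-sequenced. PSI runs from 0 (unstable) to 1 (stable). Backgrounds are wild type, das1Δ and doa10Δ at 30 °C, and wild type, das1Δ, cdc34-1 and cdc53-1 at 37 °C; 2-3 technical replicates each.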

[2] = test system: Saccharomyces cerevisiae; assay: as above; conditions: genetic background: wild type; temperature: 30 C
[3] = genetic background: cdc34-1, temperature: 37 C
[4] = genetic background: cdc53-1, temperature: 37 C
[5] = genetic background: das1 deletion, temperature: 30 C
[6] = genetic background: das1 deletion, temperature: 37 C
[7] = genetic background: doa10 deletion, temperature: 30 C
[8] = genetic background: wild type, temperature: 30 C
[9] = genetic background: wild type, temperature: 37 C
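Also: PSI is a weighted mean of sequencing reads over stability bins, variants kept only with over 10 reads, mCherry proximal and sfGFP distal, peptide attached via GGGS linker.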

| Sequence | protein stability index [1, 3] | protein stability index [1, 4] | protein stability index [1, 5] | protein stability index [1, 6] | protein stability index [1, 7] | protein stability index [1, 8] | protein stability index [1, 9] | protein stability index [2] |
| --- | --- | --- | --- | --- | --- | --- | --- | --- |
| CFLSWSLRFFIL | 0.387 ± 0.094 | 0.507 ± 0.022 | 0.482 ± 0.031 | 0.554 ± 0.034 | 0.132 ± 0.0019 | 0.118 ± 0.0054 | 0.139 ± 0.013 | 0.206 ± 0.011 |
| CFVRCFVSIRLF | 0.109 ± 0.041 | 0.167 ± 0.0043 | 0.163 ± 0.019 | 0.3093 ± 0.0021 | 0.0737 ± 0.012 | 0.0716 ± 0.026 | 0.146 ± 0.015 | 0.133 ± 0.034 |
| CGGLFDVALGVG | 0.457 ± 0.031 | 0.5096 ± 0.0026 | 0.449 ± 0.01 | 0.522 ± 0.011 | 0.477 ± 0.021 | 0.468 ± 0.023 | 0.516 ± 0.0067 | 0.471 ± 0.027 |
| CGGVQVWRVKVV | 0.657 ± 0.023 | 0.715 ± 0.012 | 0.605 ± 0.011 | 0.722 ± 0.0077 | 0.18 ± 0.016 | 0.221 ± 0.018 | 0.401 ± 0.0066 | 0.3403 ± 0.002 |
| CGSFWVNVLCAV | 0.402 ± 0.01 | 0.422 ± 0.018 | 0.334 ± 0.035 | 0.497 ± 0.01 | 0.2657 ± 0.0011 | 0.299 ± 0.034 | 0.444 ± 0.0067 | 0.402 ± 0.013 |
| CILYLSWIIFRA | 0.161 ± 0.037 | 0.192 ± 0.011 | 0.198 ± 0.041 | 0.343 ± 0.0091 | 0.213 ± 0.034 | 0.174 ± 0.028 | 0.334 ± 0.068 | 0.146 ± 0.026 |
| CLCLICFLCWFA | 0.475 ± 0.037 | 0.546 ± 0.012 | 0.408 ± 0.0097 | 0.514 ± 0.0052 | 0.387 ± 0.01 | 0.384 ± 0.038 | 0.4958 ± 0.0039 | – |
| CLLDVVMVVERG | 0.384 ± 0.055 | 0.432 ± 0.0095 | 0.347 ± 0.032 | 0.4016 ± 0.0028 | 0.364 ± 0.035 | 0.347 ± 0.016 | 0.392 ± 0.0043 | 0.365 ± 0.012 |
| CPMFVKFFFCLY | 0.448 ± 0.027 | 0.462 ± 0.011 | 0.465 ± 0.036 | 0.508 ± 0.019 | 0.479 ± 0.013 | 0.41 ± 0.021 | 0.481 ± 0.0055 | 0.405 ± 0.024 |
| CRGLSWRMITCL | 0.493 ± 0.035 | 0.59 ± 0.049 | 0.484 ± 0.016 | 0.6459 ± 0.00088 | 0.125 ± 0.011 | 0.14 ± 0.015 | 0.176 ± 0.02 | 0.225 ± 0.012 |
| CRLRYSILWFRL | 0.104 ± 0.024 | 0.09746 ± 0.00035 | 0.245 ± 0.033 | 0.309 ± 0.032 | 0.201 ± 0.016 | 0.124 ± 0.017 | 0.155 ± 0.006 | 0.152 ± 0.017 |
| GFLGMFFFWFAL | 0.588 ± 0.0078 | 0.648 ± 0.05 | 0.4628 ± 0.0043 | 0.635 ± 0.011 | 0.461 ± 0.012 | 0.473 ± 0.022 | 0.579 ± 0.018 | – |
| GGGGMGRRVGVG | 0.361 ± 0.036 | 0.4177 ± 0.0019 | 0.396 ± 0.0093 | 0.4202 ± 0.0022 | 0.4009 ± 0.0015 | 0.398 ± 0.011 | 0.415 ± 0.0084 | – |
| LCLPLYIRILSF | 0.0413 ± 0.0034 | 0.052 ± 0.0091 | 0.145 ± 0.03 | 0.18258 ± 1.6e-05 | 0.161 ± 0.0023 | 0.129 ± 0.016 | 0.126 ± 0.013 | – |
| LPPTPPLSPPPH | 0.644 ± 0.025 | 0.688 ± 0.0077 | 0.435 ± 0.028 | 0.5935 ± 0.0017 | 0.414 ± 0.0084 | 0.433 ± 0.014 | 0.5864 ± 0.005 | – |
| LSPRPPAPYYSP | 0.657 ± 0.067 | 0.733 ± 0.0089 | 0.662 ± 0.041 | 0.725 ± 0.014 | 0.676 ± 0.03 | 0.662 ± 0.028 | 0.7271 ± 0.0069 | – |
| PSPHRAPPGGHP | 0.68 ± 0.059 | 0.699 ± 0.026 | 0.6636 ± 0.0019 | 0.7271 ± 0.0067 | 0.673 ± 0.03 | 0.688 ± 0.04 | 0.701 ± 0.0029 | – |
| RKKIRTYINENV | 0.686 ± 0.079 | 0.699 ± 0.038 | 0.612 ± 0.018 | 0.766 ± 0.05 | 0.271 ± 0.018 | 0.334 ± 0.04 | 0.568 ± 0.015 | – |
| RPPPTPRSVLLN | 0.67 ± 0.021 | 0.7154 ± 0.0015 | 0.668 ± 0.011 | 0.71 ± 0.038 | 0.265 ± 0.024 | 0.286 ± 0.024 | 0.506 ± 0.011 | – |
| SVPCWVFLFCLA | 0.349 ± 0.01 | 0.416 ± 0.028 | 0.281 ± 0.03 | 0.462 ± 0.02 | 0.184 ± 0.016 | 0.227 ± 0.025 | 0.4033 ± 0.0033 | – |
| TWGGGRVSLGGG | 0.316 ± 0.038 | 0.4048 ± 0.0019 | 0.361 ± 0.013 | 0.4176 ± 0.0019 | 0.363 ± 0.01 | 0.364 ± 0.017 | 0.407 ± 0.028 | – |
| VCNSIPLTPPPA | 0.679 ± 0.031 | 0.7272 ± 0.0045 | 0.618 ± 0.025 | 0.716 ± 0.015 | 0.6171 ± 0.00098 | 0.641 ± 0.026 | 0.703 ± 0.033 | – |
| VSGITLPFLMFH | 0.287 ± 0.055 | 0.242 ± 0.034 | 0.348 ± 0.022 | 0.458 ± 0.012 | 0.635 ± 0.0033 | 0.329 ± 0.063 | 0.426 ± 0.0043 | – |

| Sequence | protein stability index [1, 3] | protein stability index [1, 4] | protein stability index [1, 5] | protein stability index [1, 6] | protein stability index [1, 7] | protein stability index [1, 8] | protein stability index [1, 9] | protein stability index [2] |
| --- | --- | --- | --- | --- | --- | --- | --- | --- |
| VSGSFRVCFRVW | 0.612 ± 0.048 | 0.629 ± 0.0076 | 0.521 ± 0.032 | 0.608 ± 0.015 | 0.538 ± 0.024 | 0.517 ± 0.012 | 0.5981 ± 0.004 | – |
| VWWWGGVGWLMV | 0.571 ± 0.047 | 0.601 ± 0.026 | 0.52 ± 0.01 | 0.625 ± 0.025 | 0.386 ± 0.015 | 0.412 ± 0.019 | 0.544 ± 0.012 | – |
| YRLCEARVQSDN | – | – | – | – | – | – | – | 0.685 ± 0.022 |
| YRSLFPAPPLHP | – | – | – | – | – | – | – | 0.6747 ± 0.0026 |
| YRSTPTGPPRPT | – | – | – | – | – | – | – | 0.758 ± 0.13 |
| YSASPLSCICPP | – | – | – | – | – | – | – | 0.652 ± 0.053 |
| YSFVKEFLNHRY | – | – | – | – | – | – | – | 0.681 ± 0.036 |
| YSGLNRVPDFCH | – | – | – | – | – | – | – | 0.676 ± 0.039 |
| YSGRGLISNHGY | – | – | – | – | – | – | – | 0.723 ± 0.043 |
| YSLQSCGFLANE | – | – | – | – | – | – | – | 0.642 ± 0.03 |
| YTPPNTLCPPVA | – | – | – | – | – | – | – | 0.703 ± 0.24 |
| YTSHRGKVYMSV | – | – | – | – | – | – | – | 0.632 ± 0.019 |
| YTTVRGETRSQL | – | – | – | – | – | – | – | 0.727 ± 0.017 |
| YVARRRPHPTGP | – | – | – | – | – | – | – | 0.778 ± 0.17 |
| YVFFPNGGLRLG | – | – | – | – | – | – | – | 0.564 ± 0.022 |
| YVGGGAGVLLVL | – | – | – | – | – | – | – | 0.623 ± 0.014 |
| YVGLSSRSFLSF | – | – | – | – | – | – | – | 0.687 ± 0.033 |
| YVLLDFFFFFLV | 0.216 ± 0.044 | 0.329 ± 0.029 | 0.24 ± 0.017 | 0.356 ± 0.043 | 0.211 ± 0.0032 | 0.182 ± 0.06 | 0.255 ± 0.032 | – |
| YVSSYILPVTRV | – | – | – | – | – | – | – | 0.603 ± 0.045 |
| YVTPALRPTSSR | – | – | – | – | – | – | – | 0.728 ± 0.031 |
| YWAPYVWMFGFR | – | – | – | – | – | – | – | 0.565 ± 0.0088 |
| YYPRGIYHNSMT | – | – | – | – | – | – | – | 0.713 ± 0.033 |
